The record followed here is paper PMC2789667 (Biochemistry, 2009).

The data set deals with the molecule itself. As to the kind of experiment: SEC. (In general: In gel filtration, larger molecules generally elute earlier.)

B1: Recombinant rat NADPH-cytochrome P450 reductase with a single amino acid mutation of K56Q (enzyme, UniProt P00388 1-678, looked up)
chain: MGDSHEDTSATMPEAVAEEVSLFSTTDMVLFSLIVGVLTYWFIFRKKKEEIPEFSQIQTTAPPVKESSFVEKMKKTGRNIIVFYGSQTGTAEEFANRLSKDAHRYGMRGMSADPEEYDLADLSSLPEIDKSLVVFCMATYGEGDPTDNAQDFYDWLQETDVDLTGVKFAVFGLGNKTYEHFNAMGKYVDQRLEQLGAQRIFELGLGDDDGNLEEDFITWREQFWPAVCEFFGVEATGEESSIRQYELVVHEDMDVAKVYTGEMGRLKSYENQKPPFDAKNPFLAAVTANRKLNQGTERHLMHLELDISDSKIRYESGDHVAVYPANDSALVNQIGEILGADLDVIMSLNNLDEESNKKHPFPCPTTYRTALTYYLDITNPPRTNVLYELAQYASEPSEQEHLHKMASSSGEGKELYLSWVVEARRHILAILQDYPSLRPPIDHLCELLPRLQARYYSIASSSKVHPNSVHICAVAVEYEAKSGRVNKGVATSWLRAKEPAGENGGRALVPMFVRKSQFRLPFKSTTPVIMVGPGTGIAPFMGFIQERAWLREQGKEVGETLLYYGCRRSDEDYLYREELARFHKDGALTQLNVAFSREQAHKVYVQHLLKRDREHLWKLIHEGGAHIYVCGDARNMAKDVQNTFYDIVAEFGPMEHTQAVDYVKKLMTKGRYSLDVWS
With B1, the binding result is “binds”.
